This note sets out measurements from paper PMC7035113 (Nature, 2020).

The target of assay [1] is T1, SA2-SCC1 complex (SA2 80-1060 in complex with SCC1 281-420) (human | , UniProt Q8N3U4;O60216).
T1 sequence 1: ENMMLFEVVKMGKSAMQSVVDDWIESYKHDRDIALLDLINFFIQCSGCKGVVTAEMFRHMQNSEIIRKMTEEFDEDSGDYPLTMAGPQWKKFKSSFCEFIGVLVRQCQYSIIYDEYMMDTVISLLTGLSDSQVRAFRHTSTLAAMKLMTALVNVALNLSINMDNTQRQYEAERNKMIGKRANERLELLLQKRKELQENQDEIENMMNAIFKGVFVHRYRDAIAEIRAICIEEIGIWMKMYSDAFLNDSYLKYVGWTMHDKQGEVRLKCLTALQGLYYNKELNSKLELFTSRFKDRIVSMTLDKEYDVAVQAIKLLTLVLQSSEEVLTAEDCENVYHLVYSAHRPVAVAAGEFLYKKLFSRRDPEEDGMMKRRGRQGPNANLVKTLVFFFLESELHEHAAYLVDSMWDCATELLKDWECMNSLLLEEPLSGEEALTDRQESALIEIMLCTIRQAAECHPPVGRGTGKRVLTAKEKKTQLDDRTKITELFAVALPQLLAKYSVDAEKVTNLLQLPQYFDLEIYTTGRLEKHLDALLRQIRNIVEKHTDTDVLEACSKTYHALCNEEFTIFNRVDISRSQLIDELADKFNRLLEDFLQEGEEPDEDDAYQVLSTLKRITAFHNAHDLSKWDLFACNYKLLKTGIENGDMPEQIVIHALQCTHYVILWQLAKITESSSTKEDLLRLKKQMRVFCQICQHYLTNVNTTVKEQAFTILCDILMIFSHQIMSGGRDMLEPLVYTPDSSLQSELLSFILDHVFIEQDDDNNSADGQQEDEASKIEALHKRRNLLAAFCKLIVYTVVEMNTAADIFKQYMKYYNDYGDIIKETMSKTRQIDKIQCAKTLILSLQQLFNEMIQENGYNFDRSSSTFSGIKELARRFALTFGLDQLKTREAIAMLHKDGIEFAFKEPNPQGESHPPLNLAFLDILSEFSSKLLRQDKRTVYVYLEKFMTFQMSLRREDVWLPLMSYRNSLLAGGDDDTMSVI
T1 sequence 2: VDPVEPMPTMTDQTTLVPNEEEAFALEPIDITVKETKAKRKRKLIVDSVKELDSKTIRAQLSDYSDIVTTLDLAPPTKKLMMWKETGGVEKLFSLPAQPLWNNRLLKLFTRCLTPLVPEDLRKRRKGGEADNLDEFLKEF
Briefly: peptide or protein array.

Assay [2] deals with T1, SA2-SCC1 complex (SA2 80-1060 in …). In words: ITC.
For assay [3] the target is unchanged. Briefly: pull-down.

Molecule DVSVFDFEEEQ [CTCF array peptide Y226F (position 2)] gave a Kd in assay [1] of 1.6 µM.

In the case of KIKYFGFDDLS [WAPL array peptide from residue 450 (position 8)], binding in assay [1] was characterised by a dissociation constant (Kd) of 2.17 µM.

As for RKMAFEFDINS [SYCP1 array peptide from residue 882 (position 15)], the affinity in assay [1], expressed as Kd, was 6.71 µM. Still for that read-out and setting: next, FTRAYDFETED [SYCP3 array peptide from residue 21 (position 17)]: 1.96 µM; KLSAFNFLDGS [yeast WAPL array peptide from residue 108 (position 10)]: 10.7 µM; TGDPFGFDSDD [WAPL array peptide from residue 70 (position 6)]: 5.9 µM. With KLEFFGFEDHE [WAPL array peptide from residue 425 (position 7)], in assay [1], binding was characterised by a dissociation constant (Kd) of 12.4 µM. Turning to NYKIKYFGFDDLSESE [WAPL peptide 447-462 (third FGF motif only)], in assay [2], the Kd turned out to be 78.7 µM, the dH was -6.81 kcal/mol and the “stoichiometry N” value was 1.

B1: WAPL residues 1-600 (domain or fragment)
chain: MTSRFGKTYSRKGGNGSSKFDEVFSNKRTTLSTKWGETTFMAKLGQKRPNFKPDIQEIPKKPKVEEESTGDPFGFDSDDESLPVSSKNLAQVKCSSYSESSEAAQLEEVTSVLEANSKISHVVVEDTVVSDKCFPLEDTLLGKEKSTNRIVEDDASISSCNKLITSDKVENFHEEHEKNSHHIHKNADDSTKKPNAETTVASEIKETNDTWNSQFGKRPESPSEISPIKGSVRTGLFEWDNDFEDIRSEDCILSLDSDPLLEMKDDDFKNRLENLNEAIEEDIVQSVLRPTNCRTYCRANKTKSSQGASNFDKLMDGTSQALAKANSESSKDGLNQAKKGGVSCGTSFRGTVGRTRDYTVLHPSCLSVCNVTIQDTMERSMDEFTASTPADLGEAGRLRKKADIATSKTTTRFRPSNTKSKKDVKLEFFGFEDHETGGDEGGSGSSNYKIKYFGFDDLSESEDDEDDDCQVERKTSKKRTKTAPSPSLQPPPESNDNSQDSQSGTNNAENLDFTEDLPGVPESVKKPINKQGDKSKENTRKIFSGPKRSPTKAVYNARHWNHPDSEELPGPPVVKPQSVTVRLSSKEPNQKDDGVFKAPA
Turning to B1, the binding result in assay [3] was “binds”.
